For assay [1], the target named is E. coli bo3 oxidase (E. coli) (UniProt P0ABJ3). Kind of assay: SEC-MALS.
Assay [2] shares this target. The experiment in a line: mass photometry.
The target in assay [3] is E. coli outer membrane protein F (OmpF) (E. coli) (UniProt P02931). The experiment in a line: native MS.
The target is the same in assay [4]. The experiment in a line: mass photometry.
Assay [5] addresses KcsA (pT7-KcsA construct, N-terminal His-tag) in native SMA nanodiscs (Streptomyces lividans) (UniProt P0A334). Kind of assay: mass photometry + other: lipid-to-protein ratio.
Assay [6] addresses potassium channel KcsA from Streptomyces lividans (pET-28a construct, N-terminal His-tag) (Streptomyces lividans) (UniProt P0A334). Kind of assay: mass photometry.
The target is the same in assay [7]. The experiment in a line: mass photometry. The source holds these as a separate data set.

Where two headings read alike, the source gives them in different places.

In assay [1], “E. coli bo3 oxidase (from UniProt P0ABJ3 1-204) (complex)” showed a relative abundance of dimers of 28%, a relative abundance of monomers of 72% and a stoichiometry N of 2. In addition, in assay [2], the relative abundance of dimers was 20%, the relative abundance of monomers came out at 80% and the stoichiometry N came to 2.

Consider “E. coli outer membrane protein F (OmpF) (from UniProt P02931 23-362) (natural protein)”, for which the stoichiometry N in assay [3] and in assay [4] was 3 throughout.

With “KcsA (pT7-KcsA construct, N-terminal His-tag) in native SMA nanodiscs (from UniProt P0A334 1-160) (natural protein)”, the stoichiometry N in assay [5] turned out to be 8.

“potassium channel KcsA from Streptomyces lividans (pET-28a construct, N-terminal His-tag) (from UniProt P0A334 1-160) (natural protein)”: the stoichiometry N in assay [6] and in assay [7] was 4 throughout.

In general, stoichiometry N refers to a count of units in the complex or per binding partner.

The values are drawn from article doi:10.1101/2020.02.28.969287.
